Test results: PMC3170884 (Frontiers in Physiology, 2011)

B1: mouse TWSG1 (mTWSG1) from E. coli, non-glycosylated (natural protein, UniProt Q9EP52 25-222, looked up)
chain: CNKALCASDVSKCLIQELCQCRPGEGNCPCCKECMLCLGALWDECCDCVGMCNPRNYSDTPPTSKSTVEELHEPIPSLFRALTEGDTQLNWNIVSFPVAEELSHHENLVSFLETVNQLHHQNVSVPSNNVHAPFPSDKERMCTVVYFDDCMSIHQCKISCESMGASKYRWFHNACCECIGPECIDYGSKTVKCMNCMF

What was measured:
[1] = target: recombinant human BMP2 derived from E. coli expression (human) (UniProt P12643); test: SPR
[2] = target: recombinant human BMP2 derived from E. coli expression (human, UniProt P12643 283-396); test: SPR
Chain of recombinant human BMP2 derived from E. coli expression (P12643 283-396): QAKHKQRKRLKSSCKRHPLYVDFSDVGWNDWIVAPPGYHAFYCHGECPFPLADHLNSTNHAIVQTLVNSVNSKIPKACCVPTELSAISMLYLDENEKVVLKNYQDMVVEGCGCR

Chain of recombinant human BMP2 derived from E. coli expression (human) (P12643 283-396): as above

Molecule	Kd [1] [nM]	koff [1] [s⁻¹]	kon [1] [M⁻¹ s⁻¹]	KD of the low affinity interaction of the biphasic binding [2] [nM]	KD of the slow (high affinity) interaction of the biphasic binding [2] [nM]
Xenopus Tsg (xTsg) from E. coli, non-glycosylated (natural protein)	20.2	0.00071	38000	–	–
Xenopus Tsg (xTsg) from insect cells, glycosylated (natural protein)	2.5	0.0002	110000	–	–
B1	–	–	–	301	39.6
